Patent publication US20240400656A1 (WASHINGTON UNIVERSITY, published 2024)

Target: T1, RoxP_HypProt_pET-22b
T1 construct: also called RoxP_6
T1 single chain: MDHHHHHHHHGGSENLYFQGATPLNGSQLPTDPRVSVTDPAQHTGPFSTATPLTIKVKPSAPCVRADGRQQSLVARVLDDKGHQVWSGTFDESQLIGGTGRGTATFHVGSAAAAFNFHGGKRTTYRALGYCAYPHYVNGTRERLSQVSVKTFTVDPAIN
Test: indirect ELISA on recombinant RoxP orthologs, absorbance normalized (%)

B1: 2H2F3 (antibody, V domains shown)
VH: QVQLQQSGAELVRPGVSVKISCKGSGYTFTDYAMHWVKQSHAKSLEWIGIISTYYGNASYNQKFKGKATMTVDKSSSTAYMELARLTSEDSAIYYCARVPYYGSSYAMDYWGQGTSVTVSS
VL: DVLMTQTPLSLPVSLGDQASISCRSSQNIVHSDGNTYLEWYLQKPGQSPKLLIYKVSNRFSGVPDRFSGSGSGTDFTLKISRVEAEDLGVYYCFQGSHVPWTFGGGTKLEIK
notes: also called IgG-2H2F3-1; 2H2F3-1
- binding result: no binding (tested: 330 ng/ml)
